# In publication doi:10.1101/475152:
# B1: 49-mer homoduplex AO3142/AO3144 (dsDNA)
# DNA 1: GGGTCAACGTGGGCAAAGATGTCCTAGCAAGTCAGAATTCGGTAGCGTG
# DNA 2: CACGCTACCGAATTCTGACTTGCTAGGACATCTTTGCCCACGTTGACCC
# Target: Mlh1-Pms1 DLDMMR (Saccharomyces cerevisiae (yeast; …, UniProt P38920;P14242 1-347+374-769;1-436+488-873, internal_change;internal_change)
# Test: filter binding
binder,measurement,value
B1,binding result,binds
